Results on two compounds are retold here after PMC6863848, “Selection of an optimal macrocyclic chelator improves the imaging of prostate cancer using cobalt-labeled GRPR antagonist RM26” (Scientific Reports, 2019).

In data set [1] the test system is NMRI mice. Conditions: 25 kBq, 3 and 24 h pi.
Protocol: (§1) Blood samples were collected by heart puncture. Lung, liver, spleen, pancreas, stomach, small intestines, kidneys, muscle, bone, and the rest of gastrointestinal tract with its content were collected, weighed and measured in a gamma-counter. The organ uptake values were expressed as a percentage of injected dose per gram of tissue weight (%ID/g) with the exception of gastrointestinal tract and the remaining carcass, which were calculated as %ID per whole sample.
The subject of data set [2] is PC-3 xenografted BALB/c nu/nu mice. Kind of data set: Ex vivo biodistribution and tumor targeting. Particulars: 24 h pi.
Protocol: (§2) Euthanasia was performed by intraperitoneal injection of Ketalar-Rompun solution (10 mg/mL Ketalar and 1 mg/mL Rompun; 20 µL/g body weight) and all efforts were made to minimize suffering. Groups of 4 mice per data point were used.
as §1
(§3) The biodistribution and targeting properties of ^57Co-X-PEG2-RM26 were evaluated in female BALB/c nu/nu mice (weight: 18 ± 2 g). GRPR-expressing xenografts were established by subcutaneous injection of 8 × 10^6 PC-3 cells/mouse, 2 weeks prior to the experiment. At the time of experiment, the mice were intravenously injected with ^57Co-X-PEG2-RM26 (25 kBq, 45 pmol in 100 µL PBS per mouse) and were euthanized 3 and 24 h pi.
Data set [3] is described as follows: Ex vivo biodistribution and tumor targeting. Conditions: female, BALB/c nu/nu, mouse, iv, 45 pmol per mouse, total radioactivity.
Protocol: as §2, §1, §3
Where [4] appears, read: gastrointestinal tract with content (whole sample).
The mark [5] stands for this setting: remaining carcass (whole sample).

Take `[57Co+2].[Cl-].[Cl-]` [free cobalt, cobalt-57 chloride]: the Biodistribution pattern result in data set [1] is recorded as “Uniform activity distribution”.
For orientation: tissue uptake means the share of the injected amount in each gram of the tissue. In the case of `CC(C)C[C@H](NC(=O)C[C@H](O)[C@H](CC(C)C)NC(=O)[C@H](Cc1c[nH]cn1)NC(=O)CNC(=O)[C@@H](NC(=O)[C@H](C)NC(=O)[C@H](Cc1c[nH]c2ccccc12)NC(=O)[C@H](CCC(N)=O)NC(=O)[C@@H](Cc1ccccc1)NC(=O)COCCOCCNC(=O)CN1CCN(CC(=O)O)CCN(CC(=O)O)CCN(CC(=O)O)CC1)C(C)C)C(N)=O` [DOTA], in data set [2], the “Tumor radioactivity, higher than other conjugates” value was “twofold higher”. Moreover, the tissue uptake at 3 h in data set [3] (blood, Blood uptake, PC-3-xenografted BALB/c nu/nu mice, iv 25 kBq/45 pmol, 3 h pi, 4 mice per data point) was 0.028 ± 0.006 %ID/g; in data set [3] (bone, Bone uptake, PC-3-xenografted BALB/c nu/nu mice, iv 25 kBq/45 pmol, 3 h pi, 4 mice per data point), 0.08 ± 0.03 %ID/g; in data set [3] (kidneys, Kidneys uptake, PC-3-xenografted BALB/c nu/nu mice, iv 25 kBq/45 pmol, 3 h pi, 4 mice per data point), 1.9 ± 0.3 %ID/g; in data set [3] (liver, Liver uptake, PC-3-xenografted BALB/c nu/nu mice, iv 25 kBq/45 pmol, 3 h pi, 4 mice per data point) it was 0.078 ± 0.009 %ID/g; in data set [3] (lung, Lung uptake, PC-3-xenografted BALB/c nu/nu mice, iv 25 kBq/45 pmol, 3 h pi, 4 mice per data point), 0.06 ± 0.01 %ID/g; in data set [3] (muscle) it was 0.4 ± 0.7 %ID/g. The tissue uptake at 3 h was 2.5 ± 0.8 %ID/g in data set [3] (pancreas, Pancreas uptake, PC-3-xenografted BALB/c nu/nu mice, iv 25 kBq/45 pmol, 3 h pi, 4 mice per data point); 0.9 ± 0.1 %ID/g in data set [3] (small intestine, Sm. Int. uptake, PC-3-xenografted BALB/c nu/nu mice, iv 25 kBq/45 pmol, 3 h pi, 4 mice per data point); 0.09 ± 0.02 %ID/g in data set [3] (spleen, Spleen uptake, PC-3-xenografted BALB/c nu/nu mice, iv 25 kBq/45 pmol, 3 h pi, 4 mice per data point); 2.1 ± 0.6 %ID/g in data set [3] (stomach, Stomach uptake, PC-3-xenografted BALB/c nu/nu mice, iv 25 kBq/45 pmol, 3 h pi, 4 mice per data point); 8.1 ± 0.6 %ID/g in data set [3] (tumor, Tumor uptake, PC-3-xenografted BALB/c nu/nu mice, iv 25 kBq/45 pmol, 3 h pi, 4 mice per data point). In addition, the tissue uptake at 24 h in data set [3] (blood, Blood uptake, PC-3-xenografted BALB/c nu/nu mice, iv 25 kBq/45 pmol, 24 h pi, 4 mice per data point) stood at 0.007 ± 0.002 %ID/g; in data set [3] (bone, Bone uptake, PC-3-xenografted BALB/c nu/nu mice, iv 25 kBq/45 pmol, 24 h pi, 4 mice per data point) it was 0.09 ± 0.06 %ID/g; in data set [3] (kidneys), 0.8 ± 0.2 %ID/g; in data set [3] (liver, Liver uptake, PC-3-xenografted BALB/c nu/nu mice, iv 25 kBq/45 pmol, 24 h pi, 4 mice per data point), 0.034 ± 0.003 %ID/g; in data set [3] (lung, Lung uptake, PC-3-xenografted BALB/c nu/nu mice, iv 25 kBq/45 pmol, 24 h pi, 4 mice per data point), 0.023 ± 0.004 %ID/g; in data set [3] (muscle, Muscle uptake, PC-3-xenografted BALB/c nu/nu mice, iv 25 kBq/45 pmol, 24 h pi, 4 mice per data point), 0.02 ± 0.01 %ID/g. Moreover, the tissue uptake at 24 h came out at 0.05 ± 0.01 %ID/g in data set [3] (pancreas, Pancreas uptake, PC-3-xenografted BALB/c nu/nu mice, iv 25 kBq/45 pmol, 24 h pi, 4 mice per data point); 0.06 ± 0.02 %ID/g in data set [3] (small intestine, Sm. Int. uptake, PC-3-xenografted BALB/c nu/nu mice, iv 25 kBq/45 pmol, 24 h pi, 4 mice per data point); 0.035 ± 0.006 %ID/g in data set [3] (spleen, Spleen uptake, PC-3-xenografted BALB/c nu/nu mice, iv 25 kBq/45 pmol, 24 h pi, 4 mice per data point); 0.06 ± 0.02 %ID/g in data set [3] (stomach, Stomach uptake, PC-3-xenografted BALB/c nu/nu mice, iv 25 kBq/45 pmol, 24 h pi, 4 mice per data point); 4.4 ± 1.3 %ID/g in data set [3] (tumor, Tumor uptake, PC-3-xenografted BALB/c nu/nu mice, iv 25 kBq/45 pmol, 24 h pi, 4 mice per data point). Besides, the figures for the tissue uptake dose at 3 h in data set [3] (setting [4]), in data set [3] (gastrointestinal tract with contents) and in data set [3] (setting [5]) were 4.8 ± 0.1 %ID, 5 %ID and 0.9 ± 0.4 %ID, respectively. The tissue uptake dose at 24 h worked out at 0.21 ± 0.09 %ID in data set [3] (setting [4]) and 0.2 ± 0.1 %ID in data set [3] (setting [5]).
